Laboratory results taken from patent US20100040606A1.

Target: RSV protein F (fusion glycoprotein), recombinant or purified (human respiratory syncytial virus, strain not stated) (UniProt P03420)
Experiment: SPR (Biacore 3000), Fab over immobilised recombinant antigen

“Fab fragment derived from commercially available Palivizumab (Synagis)” showed a Kd of 3.78 nM, a koff of 0.000757 s⁻¹ and a kon of 200000 M⁻¹ s⁻¹. It also gave a t1/2 of 15 min.
